The record followed here is publication PMC2683335 (The Journal of biological chemistry, 2008).

In data set [1] the target is MthMCM RR137,160AA double mutant (Methanothermobacter thermautotrophicus). As to the kind of experiment: AUC.
Data set [2] deals with MthMCM R137A mutant (Methanothermobacter thermautotrophicus). As to the kind of experiment: negative-stain electron microscopy.
The data set “AUC” concerns the molecule itself. As to the kind of experiment: AUC.
Data set [3] deals with the molecule itself. As to the kind of experiment: SEC + other: sucrose gradient sedimentation.

For the molecule “MthMCM RR137,160AA double mutant (natural protein)”, the stoichiometry N (as a rule, a count of units in the complex or per binding partner) in data set [1] came out at 7 subunits.

As to MthMCM R137A mutant (natural protein), the stoichiometry N in data set [2] was found to be 14 subunits.

B1: Methanothermobacter thermautotrophicus MCM (MthMCM), wild type (natural protein, UniProt O27798 1-666, looked up)
chain: MMKTVDKSKTLTKFEEFFSLQDYKDRVFEAIEKYPNVRSIEVDYLDLEMFDPDLADLLIEKPDDVIRAAQQAIRNIDRLRKNVDLNIRFSGISNVIPLRELRSKFIGKFVAVDGIVRKTDEIRPRIVKAVFECRGCMRHHAVTQSTNMITEPSLCSECGGRSFRLLQDESEFLDTQTLKLQEPLENLSGGEQPRQITVVLEDDLVDTLTPGDIVRVTGTLRTVRDERTKRFKNFIYGNYTEFLEQEFEELQISEEDEEKIKELAGDPNIYEKIIRSTAPSIHGYREVKEAIALQLFGGTGKELDDKTRLRGDIHILIVGDPGIGKSQMLKYVSKLAPRGIYTSGKGTSGVGLTAAAVRDEFGGWSLEAGALVLGDKGNVCVDELDKMREEDRSAIHEALEQQTISIAKAGIMATLNSRCSVLAAANPKFGRFDSYKSIAEQIDLPSTILSRFDLIFVVEDKPDEEKDRELARHILKTHKEDHMPFEIDPELLRKYIAYARKNVRPVLTDEAMQVLEDFYVSMRASAADEDSPVPITARQLEALVRLSEASAKIKLKEHVEAEDARKAIKLSQACLKQVGYDPETGKIDIDKVEGRTPKSERDKFRLLLELIKEYEDDYGGRAPTNILITEMMDRYNVSEEKVEELIRILKDKGAIFEPARGYLKIV
On to B1, for which the “stoichiometry N” value in “AUC” was 12.2 subunits/complex; in data set [3], 11.6 monomers.
